Source: patent US20210061859A1, “NTCP Inhibitor” (The University of Tokyo, priority 2018, published 2021)
Where a SMILES comes first, the peptide text is derived from it. Bridges are numbered along the chain shown (N, C = ends). [ ]: non-standard residue; d: D form. NMeS = CN[C@@H](CO)C(=O)O; Sar = CNCC(=O)O

T1: human NTCP (Homo sapiens, UniProt Q14973)
T1 construct: made in house; host or cells: wheat germ cell-free protein synthesis system
T1 sequence (Q14973 1-349): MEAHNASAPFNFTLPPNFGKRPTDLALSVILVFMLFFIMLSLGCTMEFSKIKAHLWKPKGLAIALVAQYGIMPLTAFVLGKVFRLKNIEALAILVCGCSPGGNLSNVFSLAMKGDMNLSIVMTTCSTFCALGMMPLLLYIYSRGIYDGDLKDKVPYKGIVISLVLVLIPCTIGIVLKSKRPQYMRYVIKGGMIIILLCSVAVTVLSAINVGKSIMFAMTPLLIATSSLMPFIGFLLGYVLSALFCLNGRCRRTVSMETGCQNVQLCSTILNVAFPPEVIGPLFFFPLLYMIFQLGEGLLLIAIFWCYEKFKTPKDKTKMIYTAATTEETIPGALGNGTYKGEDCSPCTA

T2: His-tagged recombinant NTCP protein (human sodium taurocholate cotransporting polypeptide) (human), Q14973
T2 chain: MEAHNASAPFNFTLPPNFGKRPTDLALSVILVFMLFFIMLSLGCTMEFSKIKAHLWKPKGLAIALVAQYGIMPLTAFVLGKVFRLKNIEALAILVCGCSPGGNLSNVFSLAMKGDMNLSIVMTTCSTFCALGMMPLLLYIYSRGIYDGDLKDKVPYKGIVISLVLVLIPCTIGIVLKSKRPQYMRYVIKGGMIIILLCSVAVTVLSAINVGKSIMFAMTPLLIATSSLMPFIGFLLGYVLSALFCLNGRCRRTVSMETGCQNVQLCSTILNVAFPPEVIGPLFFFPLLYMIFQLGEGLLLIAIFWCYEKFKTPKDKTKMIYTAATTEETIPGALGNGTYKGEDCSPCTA


Experiments:
human NTCP = biological target: T1, human NTCP; experiment: Surface plasmon resonance binding to immobilized recombinant NTCP; conditions: Kd, single-cycle kinetics, 1:1 binding model, NTCP immobilized on NTA-Ni2+
Protocol: (§1) FIG. 7 is a diagram showing the NTCP association constant of a peptide identified by first RaPID screening. A single-cycle reaction kinetics experiment was conducted using NTCP immobilized on surface (NTA-Ni^2+) involving varying concentrations of a cyclic peptide analyte. In each case, as shown in the drawing, the peptide was tested with 4-fold serial dilutions starting from the highest concentration of 200 or 1000 nM. A dissociation constant (KD) was determined using a 1:1 binding model.
as §1, with “9” for “7”, “focused library” for “first”, “association constant” for “reaction kinetics”
The association constant of each peptide for human NTCP was measured using a Biacore T200 apparatus (GE Healthcare Japan Corp.). The running buffer solution used was HBS-P+ (10 mM HEPES, 150 mM NaCl, and 0.05 vol % surfactant P20, pH 7.4) containing 0.1 vol % DMSO and 1 mM β-dodecyl-maltoside. 100 nM recombinant NTCP was immobilized on a NTA chip treated with Ni^2+ according to the manufacturer's instructions (baseline response: 1000 to 3000 refraction units). Peptides were injected as analytes at a flow rate of 60 μL/min, and association constants were modelled using a 1:1 binding model.

[1] = biological target: T2, His-tagged recombinant NTCP protein …; experiment: SPR (Biacore T200), single-cycle kinetics, His-NTCP on Ni2+-NTA chip, peptide as analyte, 1:1 model

Kd [1] [nM]	Molecule	Kd (human NTCP) [nM]
–	CC(C)C[C@@H]1NC(=O)[C@H](Cc2ccc(O)cc2)NC(=O)CSC[C@@H](C(=O)NCC(N)=O)NC(=O)[C@H](C(C)C)NC(=O)[C@H](CC(N)=O)NC(=O)[C@H](Cc2ccc(O)cc2)NC(=O)[C@H](C)NC(=O)[C@H](Cc2ccc(O)cc2)NC(=O)[C@H](CO)NC(=O)[C@H]([C@@H](C)O)NC(=O)[C@H](CC(N)=O)NC(=O)[C@@H]2CCCN2C(=O)[C@H](Cc2c[nH]c3ccccc23)NC(=O)[C@H]([C@@H](C)O)NC(=O)[C@H](Cc2c[nH]c3ccccc23)NC(=O)[C@H](CC(C)C)NC(=O)[C@H](Cc2ccc(O)cc2)NC1=O [L4] ({CH2CO}-YLYLWTWPNTSYAYNVCG-NH2; thioether N-17)	30
–	CC(C)C[C@@H]1NC(=O)[C@H](Cc2ccccc2)NC(=O)[C@H](C)NC(=O)[C@H](CO)N(C)C(=O)[C@H](CC(N)=O)NC(=O)[C@H](Cc2c[nH]c3ccccc23)NC(=O)[C@H]([C@@H](C)O)NC(=O)[C@H](Cc2c[nH]c3ccccc23)NC(=O)[C@H]([C@@H](C)O)NC(=O)[C@H](Cc2ccc(O)cc2)NC(=O)CSC[C@@H](C(=O)N[C@H](C(N)=O)[C@@H](C)O)NC(=O)[C@H](Cc2ccc(O)cc2)NC(=O)[C@H](C(C)C)NC(=O)[C@H](Cc2ccc(O)cc2)NC1=O [WL6] ({CH2CO}-YTWTWN[NMeS]AFLYVYCT-NH2; thioether N-14)	36
–	CC(C)C[C@@H]1NC(=O)[C@H](CC(=O)O)NC(=O)[C@H](CC(C)C)NC(=O)[C@H](Cc2ccccc2)NC(=O)[C@H](Cc2c[nH]c3ccccc23)NC(=O)[C@H](CO)NC(=O)[C@H](CCCNC(=N)N)NC(=O)[C@H](CCC(=O)O)NC(=O)[C@H](C)NC(=O)[C@H](Cc2c[nH]c3ccccc23)NC(=O)[C@H](CC(C)C)NC(=O)[C@H](CC(C)C)NC(=O)[C@H](Cc2c[nH]c3ccccc23)NC(=O)[C@H](C(C)C)NC(=O)[C@H](Cc2ccc(O)cc2)NC(=O)CSC[C@@H](C(=O)NCC(N)=O)NC(=O)CNC1=O [L2] ({CH2CO}-YVWLLWAERSWFLDLGCG-NH2; thioether N-17)	374
–	CC[C@H](C)[C@@H]1NC(=O)[C@H](Cc2c[nH]cn2)NC(=O)[C@H]([C@@H](C)CC)NC(=O)[C@H](CO)N(C)C(=O)[C@@H]2CCCN2C(=O)[C@H](Cc2ccc(O)cc2)NC(=O)[C@H](Cc2ccc(O)cc2)NC(=O)[C@H]([C@@H](C)CC)NC(=O)[C@H](Cc2ccc(O)cc2)NC(=O)[C@H](CC(N)=O)NC(=O)[C@@H](Cc2ccc(O)cc2)NC(=O)CSC[C@@H](C(=O)N[C@H](C(N)=O)[C@@H](C)O)NC(=O)[C@H](CC(C)C)NC(=O)[C@H](Cc2ccc(O)cc2)NC(=O)[C@H](Cc2ccccc2)NC1=O [PD1] ({CH2CO}-[dY]NYIYYP[NMeS]IHIFYLCT-NH2; thioether N-15)	149
–	CC[C@H](C)[C@@H]1NC(=O)CN(C)C(=O)[C@H](CO)NC(=O)[C@H](Cc2ccc(O)cc2)NC(=O)[C@H](CCCCN)NC(=O)[C@H](Cc2ccc(O)cc2)NC(=O)[C@H]([C@@H](C)O)NC(=O)[C@H](Cc2ccc(O)cc2)NC(=O)CSC[C@@H](C(=O)N[C@H](C(N)=O)[C@@H](C)O)NC(=O)[C@H](Cc2c[nH]c3ccccc23)NC(=O)[C@H]([C@@H](C)CC)NC(=O)[C@H](Cc2c[nH]c3ccccc23)NC(=O)[C@H]([C@@H](C)CC)NC(=O)[C@H](Cc2c[nH]c3ccccc23)NC1=O [WL1] ({CH2CO}-YTYKYS[Sar]IWIWIWCT-NH2; thioether N-14)	360
–	CC(C)C[C@@H]1NC(=O)[C@H](Cc2ccc(O)cc2)NC(=O)CSC[C@@H](C(=O)NCC(N)=O)NC(=O)[C@H](CC(C)C)NC(=O)[C@H](CO)NC(=O)[C@H]([C@@H](C)O)NC(=O)[C@H](C(C)C)NC(=O)[C@H]([C@@H](C)O)NC(=O)[C@H](Cc2c[nH]c3ccccc23)NC(=O)[C@H](CC(N)=O)NC(=O)[C@H](CO)NC(=O)[C@H](Cc2c[nH]cn2)NC(=O)[C@H](Cc2c[nH]c3ccccc23)NC(=O)[C@H]([C@@H](C)O)NC(=O)[C@H](Cc2c[nH]c3ccccc23)NC(=O)[C@H]([C@@H](C)O)NC(=O)[C@H](Cc2ccc(O)cc2)NC1=O [L1] ({CH2CO}-YLYTWTWHSNWTVTSLCG-NH2; thioether N-17)	21
–	CC[C@H](C)[C@@H]1NC(=O)[C@H](Cc2c[nH]c3ccccc23)NC(=O)[C@H]([C@@H](C)O)NC(=O)[C@@H](Cc2ccc(O)cc2)NC(=O)CSC[C@@H](C(=O)N[C@H](C(N)=O)[C@@H](C)O)NC(=O)[C@@H]2CCCN2C(=O)[C@H](Cc2ccccc2)NC(=O)[C@H](Cc2ccc(O)cc2)NC(=O)[C@H](C(C)C)NC(=O)[C@H](C(C)C)NC(=O)[C@H](Cc2ccc(O)cc2)NC(=O)[C@H](CC(C)C)NC(=O)CN(C)C(=O)CN(C)C(=O)[C@H](Cc2c[nH]c3ccccc23)NC1=O [WD2] ({CH2CO}-[dY]TWIW[Sar][Sar]LYVVYFPCT-NH2; thioether N-15)	14
–	CC[C@H](C)[C@@H]1NC(=O)[C@H](Cc2ccc(O)cc2)NC(=O)[C@H](CC(C)C)NC(=O)[C@H](C)NC(=O)[C@H]([C@@H](C)O)NC(=O)[C@H](CC(N)=O)NC(=O)[C@H](Cc2c[nH]c3ccccc23)NC(=O)[C@H](CCC(=O)O)NC(=O)[C@@H]2CCCN2C(=O)[C@H](Cc2ccc(O)cc2)NC(=O)[C@H](Cc2c[nH]c3ccccc23)NC(=O)[C@H](Cc2ccc(O)cc2)NC(=O)[C@H](Cc2c[nH]cn2)NC(=O)[C@@H](Cc2ccc(O)cc2)NC(=O)CSC[C@@H](C(=O)NCC(N)=O)NC(=O)[C@@H]2CCCN2C(=O)[C@H](Cc2c[nH]c3ccccc23)NC1=O [D3] ({CH2CO}-[dY]HYWYPEWNTALYIWPCG-NH2; thioether N-17)	50
–	CC[C@H](C)[C@@H]1NC(=O)[C@H](Cc2c[nH]c3ccccc23)NC(=O)[C@H]([C@@H](C)CC)NC(=O)[C@H](Cc2ccccc2)NC(=O)[C@H](CO)NC(=O)[C@H](CC(N)=O)NC(=O)[C@H](CCC(N)=O)NC(=O)[C@H](Cc2c[nH]c3ccccc23)NC(=O)[C@H]([C@@H](C)O)NC(=O)[C@H](Cc2c[nH]c3ccccc23)NC(=O)[C@H]([C@@H](C)O)NC(=O)[C@H](Cc2ccc(O)cc2)NC(=O)CSC[C@@H](C(=O)N[C@H](C(N)=O)[C@@H](C)O)NC(=O)[C@H](Cc2ccc(O)cc2)NC1=O [WL5] ({CH2CO}-YTWTWQNSFIWIYCT-NH2; thioether N-14)	10
4	YTWNTHHYYIWLNCG (modifications not checked) [NTCP-L5]	–
360	YTYKYSGIWIWIWCT (modifications not checked) [WL1]	–
57	YTWTWHSAYLYVFCT (modifications not checked) [WL3]	–
2270	YILVYPELHLFLLYSCG (modifications not checked) [NTCP-D4]	–
50	YHYWYPEWNTALYIWPCG (modifications not checked) [NTCP-D3]	–
21	YLYTWTWHSNWTVTSLCG (modifications not checked) [NTCP-L1]	–
10	YTWTWQNSFIWIYCT (modifications not checked) [WL5]	–
13	YLWIFHQNWYTFDLGCG (modifications not checked) [NTCP-L3]	–
11	YTFTYAQIWIWYYGCT (modifications not checked) [WD4]	–
15	YALIWTWSQYYQYYSCT (modifications not checked) [WD3]	–
374	YVWLLWAERSWFLDLGCG (modifications not checked) [NTCP-L2]	–
14	YTWIWGGLYVVYFPCT (modifications not checked) [WD2]	–
36	YTWTWNSAFLYVYCT (modifications not checked) [WL6]	–
30	YLYLWTWPNTSYAYNVCG (modifications not checked) [NTCP-L4]	–
149	YNYIYYPSIHIFYLCT (modifications not checked) [PD1]	–
14	YWWAINPHIHVFTWPCG (modifications not checked) [NTCP-D2]	–
